# Measured values from the Immune Epitope Database (IEDB).
# What was measured:
# [1] = target: HLA-B*18:01; assay: IEDB peptide-MHC binding, purified MHC/direct/fluorescence; filed as Kd, often an IC50 or EC50 that approximates it; ≥ and ≤ were set here for values at or beyond the usual limits of such assays
# [2] = target: HLA-B*40:01; assay: as above
# [3] = target: HLA-B*15:01; assay: as above
# [4] = target: HLA-B*27:05; assay: as above
# [5] = target: HLA-A*02:01; assay: as above
# [6] = target: HLA-A*03:01; assay: as above
# [7] = target: HLA-B*58:01; assay: as above
# [8] = target: HLA-B*44:02; assay: as above
# [9] = target: HLA-A*01:01; assay: as above; details: source organism: Escherichia coli O157:H7
# [10] = target: HLA-B*07:02; assay: as above; details: source organism: Escherichia coli O157:H7
# [11] = target: HLA-A*11:01; assay: IEDB peptide-MHC binding, purified MHC/competitive/radioactivity; filed as Kd, often an IC50 or EC50 that approximates it; ≥ and ≤ were set here for values at or beyond the usual limits of such assays; details: source organism: Dengue virus 2 Jamaica/1409/1983
# [12] = target: HLA-A*03:01; assay: as above
# [13] = target: HLA-A*30:01; assay: as above
# [14] = target: HLA-A*68:02; assay: as above
# [15] = target: HLA-B*51:01; assay: as above
# [16] = target: HLA-B*08:01; assay: as above; details: source organism: Dengue virus 2 Jamaica/1409/1983
# [17] = target: HLA-A*29:02; assay: as above
# [18] = target: HLA-A*30:02; assay: as above
# [19] = target: HLA-A*01:01; assay: as above
# [20] = target: HLA-A*32:01; assay: as above
# [21] = target: HLA-A*26:01; assay: as above
# [22] = target: HLA-A*31:01; assay: IEDB peptide-MHC binding, purified MHC/direct/fluorescence; filed as Kd, often an IC50 or EC50 that approximates it; ≥ and ≤ were set here for values at or beyond the usual limits of such assays
# [23] = target: HLA-B*08:01; assay: as above
# [24] = target: HLA-A*31:01; assay: IEDB peptide-MHC binding, purified MHC/competitive/radioactivity; filed as Kd, often an IC50 or EC50 that approximates it; ≥ and ≤ were set here for values at or beyond the usual limits of such assays; details: source organism: Mammarenavirus choriomeningitidis
# [25] = target: HLA-A*68:01; assay: as above; details: source organism: Mammarenavirus choriomeningitidis
# [26] = target: HLA-A*33:01; assay: as above; details: source organism: Mammarenavirus choriomeningitidis
# [27] = target: HLA-B*57:01; assay: IEDB peptide-MHC binding, purified MHC/direct/fluorescence; filed as Kd, often an IC50 or EC50 that approximates it; ≥ and ≤ were set here for values at or beyond the usual limits of such assays; details: source organism: Giardia lamblia ATCC 50803
# [28] = target: HLA-A*23:01; assay: IEDB peptide-MHC binding, purified MHC/competitive/radioactivity; filed as Kd, often an IC50 or EC50 that approximates it; ≥ and ≤ were set here for values at or beyond the usual limits of such assays
# [29] = target: HLA-A*24:02; assay: as above
# [30] = target: HLA-A*11:01; assay: IEDB peptide-MHC binding, purified MHC/direct/fluorescence; filed as Kd, often an IC50 or EC50 that approximates it; ≥ and ≤ were set here for values at or beyond the usual limits of such assays; details: source organism: SARS-CoV1
# [31] = target: HLA-B*44:03; assay: IEDB peptide-MHC binding, purified MHC/competitive/radioactivity; filed as Kd, often an IC50 or EC50 that approximates it; ≥ and ≤ were set here for values at or beyond the usual limits of such assays; details: source organism: Dengue virus 1 Brazil/97-11/1997
# [32] = target: HLA-B*53:01; assay: as above
# [33] = source organism: Orthohantavirus hantanense
# [34] = source organism: Escherichia coli O157:H7
# [35] = source organism: Dengue virus 2 Jamaica/1409/1983
# [36] = source organism: Dengue virus 1 Brazil/97-11/1997
# [37] = source organism: Vaccinia virus WR
# [38] = source organism: West Nile virus
# [39] = source organism: Dengue virus 4 Philippines/H241/1956
# [40] = source organism: Mammarenavirus juninense
# [41] = source organism: Dengue virus 4 Dominica/814669/1981
# [42] = source organism: Mammarenavirus tacaribeense
# [43] = source organism: Giardia lamblia ATCC 50803
# [44] = source organism: Mammarenavirus choriomeningitidis
# [45] = source organism: Influenza A virus (A/Duck/Shantou/2144/00(H9N2))
# [46] = source organism: Lassa virus Josiah
# [47] = source organism: Entamoeba histolytica HM-1:IMSS
# [48] = source organism: Dengue virus 3 Martinique/1243/1999
# [49] = source organism: Lymphocytic choriomeningitis virus (strain Armstrong)
# [50] = source organism: Mammarenavirus brazilense
# [51] = source organism: Dengue virus 1 Singapore/S275/1990
# [52] = source organism: Mammarenavirus guanaritoense
# [53] = source organism: Dengue virus 2 Peru/IQT2913/1996
sequence,measurement,setting,value
AEAAGCSMI,Kd,[1]; [33],≥ 20000 nM
same,Kd,[2]; [33],4.5 nM
SMYQLMITI,Kd,[3]; [34],≥ 20000 nM
same,Kd,[4]; [34],≥ 20000 nM
same,Kd,[5]; [34],827 nM
same,Kd,[6]; [34],≥ 20000 nM
same,Kd,[7]; [34],≥ 20000 nM
same,Kd,[8]; [34],≥ 20000 nM
same,Kd,[9],≥ 20000 nM
same,Kd,[2]; [34],≥ 10000 nM
same,Kd,[10],≥ 20000 nM
KITAEWLWK,Kd,[11],1440 nM
same,Kd,[12]; [35],99.4 nM
same,Kd,[13]; [35],536 nM
KKMIRPQPME,Kd,[13]; [36],8740 nM
RTKIPLSKV,Kd,[13]; [37],4.13 nM
WTMKILIGVI,Kd,[14]; [35],184 nM
VAFLRFLTI,Kd,[15]; [35],1.89 nM
same,Kd,[16],10.4 nM
REDIWCGSL,Kd,[1]; [38],7080 nM
ATREAQKRA,Kd,[13]; [35],27.4 nM
LVMLLVHYA,Kd,[14]; [39],369 nM
ASAHVRQSEY,Kd,[17]; [40],102 nM
same,Kd,[18]; [40],5.79 nM
same,Kd,[13]; [40],2730 nM
same,Kd,[19]; [40],4.53 nM
same,Kd,[20]; [40],827 nM
same,Kd,[21]; [40],≥ 24700 nM
RADRVIDPRR,Kd,[13]; [36],1930 nM
KTDFSNIRA,Kd,[13]; source organism: Vaccinia virus Copenhagen,209 nM
LTEIASLPTY,Kd,[18]; [39],226 nM
same,Kd,[13]; [39],9340 nM
same,Kd,[19]; [39],1.39 nM
same,Kd,[21]; [39],899 nM
ASRRSWPLN,Kd,[13]; [41],50.2 nM
ELTCLNEASV,Kd,[14]; source organism: Homo sapiens,68.8 nM
FVAAALHNV,Kd,[17]; [42],13500 nM
same,Kd,[18]; [42],≥ 76900 nM
same,Kd,[13]; [42],6100 nM
same,Kd,[19]; [42],≥ 20500 nM
same,Kd,[20]; [42],≥ 77800 nM
same,Kd,[21]; [42],2540 nM
KLFIRQEEV,Kd,[3]; source organism: SARS-CoV1,14900 nM
same,Kd,[22]; source organism: SARS-CoV1,130 nM
same,Kd,[23]; source organism: SARS-CoV1,2850 nM
same,Kd,[5]; source organism: SARS-CoV1,400 nM
SSAAQRRGRI,Kd,[14]; [35],51 nM
VEAGLIDTY,Kd,[1]; source organism: Vibrio vulnificus YJ016,≥ 20000 nM
AARDRQFEK,Kd,[13]; [37],104 nM
GIFMTATPPG,Kd,[13]; [35],1220 nM
ELCAEAEEL,Kd,[14]; source organism: Homo sapiens,1060 nM
TFIRSTMPLV,Kd,[13]; [39],257 nM
IELEHLRGL,Kd,[1]; [43],10 nM
TTRNGEPHM,Kd,[13]; [35],1200 nM
LVSFLLLAGR,Kd,[24],9.28 nM
same,Kd,[25],36.4 nM
same,Kd,[26],151 nM
same,Kd,[12]; [44],803 nM
same,Kd,[13]; [44],9510 nM
TTHFQRALI,Kd,[14]; [35],1.3 nM
RARISQGAG,Kd,[13]; [35],126 nM
KYSRSKPAA,Kd,[13]; [37],5.71 nM
GEETIEERF,Kd,[1]; [45],3380 nM
same,Kd,[8]; [45],≥ 20000 nM
same,Kd,[2]; [45],134 nM
PTAPSDGGM,Kd,[7]; [43],9000 nM
same,Kd,[27],≥ 20000 nM
DTVTYKCPLL,Kd,[13]; [41],3080 nM
DCIMTSYQYL,Kd,[17]; [46],14200 nM
same,Kd,[28]; [46],5330 nM
same,Kd,[29]; [46],2310 nM
same,Kd,[18]; [46],10400 nM
same,Kd,[13]; [46],4430 nM
same,Kd,[19]; [46],3860 nM
same,Kd,[20]; [46],3040 nM
same,Kd,[21]; [46],12600 nM
KNKIPFLLL,Kd,[13]; [37],92.4 nM
ITVSGLYPLA,Kd,[13]; [39],462 nM
KPWDVVPMV,Kd,[15]; [35],1440 nM
MVSILASSLL,Kd,[14]; [35],44.7 nM
MAVLFVVTLI,Kd,[14]; [39],533 nM
NEVEVITKL,Kd,[1]; [38],6.3 nM
YSAPSESEGV,Kd,[14]; [41],12.2 nM
LWNFIHQQR,Kd,[22]; [47],12.2 nM
same,Kd,[6]; [47],≥ 20000 nM
EHYVRITGL,Kd,[30],≥ 24300 nM
same,Kd,[23]; source organism: SARS-CoV1,3530 nM
same,Kd,[4]; source organism: SARS-CoV1,≥ 46900 nM
IPPTAGILA,Kd,[15]; [36],5550 nM
RTRNALDNL,Kd,[13]; [48],3.33 nM
LYDVIPVTY,Kd,[17]; [40],375 nM
same,Kd,[18]; [40],4200 nM
same,Kd,[13]; [40],≥ 78100 nM
same,Kd,[19]; [40],145 nM
same,Kd,[20]; [40],≥ 77800 nM
same,Kd,[21]; [40],≥ 77900 nM
QYIFTGQPLN,Kd,[13]; [48],8840 nM
TVAWRTATLI,Kd,[14]; [48],61.5 nM
YLKAKREKL,Kd,[23]; source organism: Coxiella burnetii Q321,143 nM
GPDIYKGVY,Kd,[17]; [49],2470 nM
same,Kd,[28]; [49],≥ 77700 nM
same,Kd,[29]; [49],≥ 77500 nM
same,Kd,[18]; [49],1820 nM
same,Kd,[13]; [49],≥ 66200 nM
same,Kd,[19]; [49],≥ 32200 nM
same,Kd,[20]; [49],≥ 77800 nM
same,Kd,[21]; [49],≥ 77900 nM
LPLPWTSGAT,Kd,[15]; [48],≥ 21400 nM
NPHLPEKKI,Kd,[15]; [48],≥ 28800 nM
MIDNQKLSY,Kd,[17]; [50],106 nM
same,Kd,[18]; [50],843 nM
same,Kd,[13]; [50],≥ 34600 nM
same,Kd,[19]; [50],9.61 nM
same,Kd,[20]; [50],≥ 61200 nM
same,Kd,[21]; [50],≥ 34700 nM
LEFFLMVLL,Kd,[31],15600 nM
same,Kd,[1]; [51],189 nM
same,Kd,[8]; [51],≥ 20000 nM
CTLEGVWAPF,Kd,[17]; [52],957 nM
same,Kd,[18]; [52],937 nM
same,Kd,[13]; [52],6960 nM
same,Kd,[19]; [52],1220 nM
same,Kd,[20]; [52],44.2 nM
same,Kd,[21]; [52],116 nM
QPESNILDI,Kd,[15]; [53],≥ 46400 nM
same,Kd,[32]; [53],1010 nM
SPCKIPFEI,Kd,[15]; [35],≥ 47700 nM
same,Kd,[32]; [35],1280 nM
ETWMSSEGA,Kd,[14]; [35],2.86 nM
LGLMALKLI,Kd,[15]; [48],8370 nM
